In this assay the target is T1, nucleocapsid protein of SARS-CoV-2 expressed in HEK-293 cells (SARS-CoV-2, UniProt P0DTC9 1-419).
T1 construct: also called 293-NP; 293-NP cell lysates
As to the kind of experiment: ELISA on HEK-293 lysate 293-NP (FIG. 3). Background: In an ELISA, binding on a coated surface is turned into a signal by an enzyme label.

These results are taken from US20210341478A1 (ANTAIMMU BIOMED, published 2021).

B1: NP-4 IgG (antibody, V domains shown)
VH: EVQLVESGGGLVQPGGSLRLSCAASGFTITNWWIHWVRQAPGKGLEWVAAISPFNGKTHYADSVKGRFTISADTSKNTAYLQMNSLRAEDTAVYYCARLLSIYDYWGQGTLVTVSS
VL: DIQMTQSPSSLSASVGDRVSITCRASQDVWYYVAWYQQKPGKAPKLLISRTNWLDSGVPSRFSGSGSGTDFTLTISSLQPEDFATYYCQQYSDYPLTFGQGTKVEIKR
On to B1, for which the binding result is listed as “binds”.

B2: NP-3 IgG (antibody, V domains shown)
VH: EVQLVESGGGLVQPGGSLRLSCAASGFTITDYGIHWVRQAPGKGLEWVAYIGPSDGDTHYADSVKGRFTISADTSKNTAYLQMNSLRAEDTAVYYCARTGGYNSWYMDYWGQGTLVTVSS
VL: DIQMTQSPSSLSASVGDRVTITCRASQDVNNWVAWYQQKPGKAPKLLIYFTSYLYSGVPSRFSGSGSGTDFTLTISSLQPEDFATYYCQQHSTYPFTFGQGTKVEIKR
As for B2, the binding result was “binds”.
